# Measurements as given in the supplement of paper PMC10724198.
# ± gives the standard deviation of the averaged measurements.
# Tested on: Saccharomyces cerevisiae
# Test: protein stability index of tFT-peptide fusion (C-terminal peptide) (PSI (0-1 scale)); higher = more stable (slower turnover)
# Details: genetic background: wild type; temperature: 30 C
# 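Further: PSI is a weighted mean of sequencing reads over stability bins, variants kept only with over 10 reads, mCherry proximal and sfGFP distal, peptide attached via GGGS linker.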
row,Sequence,protein stability index
1,PSGSNPPRTIPT,0.713 ± 0.017
2,PSKLNLSRKPEC,0.677 ± 0.018
3,PSLFFLPPPPSP,0.695 ± 0.0096
4,PSLGLQAPTPCP,0.679 ± 0.012
5,PSLIRTPTTPSP,0.69 ± 0.018
6,PSLLSPTPPTTD,0.711 ± 0.075
7,PSLPPPPPRAFS,0.649 ± 0.0028
8,PSLSPAPLPGLP,0.706 ± 0.042
9,PSNLNASLASRV,0.655 ± 0.015
10,PSPALPVHPPLQ,0.687 ± 0.011
11,PSPARLFVSPSP,0.649 ± 0.04
12,PSPFPPPLPPHL,0.767 ± 0.064
13,PSPLCDFTRSSI,0.659 ± 0.025
14,PSPLLPAPRRPP,0.684 ± 0.085
15,PSPPASSPPLPL,0.665 ± 0.02
16,PSPPLPLPLLSV,0.633 ± 0.029
17,PSPPPAIFPFVS,0.71 ± 0.059
18,PSPPPHGLPRPA,0.675 ± 0.06
19,PSPPPLSPPTPR,0.667 ± 0.016
20,PSPPPPGLFPLP,0.632 ± 0.044
21,PSPPPRRPPAPP,0.666 ± 0.017
22,PSPPPSLLPTPP,0.679 ± 0.063
23,PSPPPTPPLICL,0.697 ± 0.025
24,PSPPSHRFPAIP,0.697 ± 0.0081
25,PSPRPPPPPPPP,0.66 ± 0.025
26,PSPRSFLSIRFL,0.581 ± 0.013

row,Sequence,protein stability index
1,PSPTAPGPSIPP,0.667 ± 0.049
2,PSRPAHSPPVPP,0.646 ± 0.02
3,PSRSATRPFPLS,0.707 ± 0.071
4,PSRVPSSVPLAP,0.6864 ± 0.0061
5,PSSPPDLAFRPP,0.6157 ± 0.0049
6,PSSPPSLRLPPL,0.701 ± 0.044
7,PSSRPPPPPPPP,0.698 ± 0.037
8,PSSRRRLLPPPH,0.71 ± 0.12
9,PSSWGRFLRRRP,0.7 ± 0.024
10,PSVSPVRLPYLL,0.687 ± 0.035
11,PTAESFNVRKRD,0.723 ± 0.086
12,PTAPLIPTGGAP,0.685 ± 0.029
13,PTCALPKLLTHP,0.796 ± 0.021
14,PTDAFFGLCMDC,0.68 ± 0.038
15,PTGQEFYRGGTR,0.6927 ± 0.0047
16,PTGSHARRRPRR,0.65 ± 0.023
17,PTLLQPPPPSYP,0.704 ± 0.048
18,PTLPGEQPRSWQ,0.6701 ± 0.0049
19,PTMKLPLLSCAR,0.602 ± 0.091
20,PTPGSPPPPLHP,0.706 ± 0.02
21,PTPHHPPPHPGP,0.726 ± 0.042
22,PTPLLTQHPRRP,0.72 ± 0.043
23,PTPLRILFALTP,0.611 ± 0.12
24,PTPMLPNYPWSR,0.7431 ± 0.0015
25,PTPPHPTSPPPP,0.693 ± 0.01
26,PTPPPAFGFPPP,0.688 ± 0.16

row,Sequence,protein stability index
1,PTPPTAAPAAPR,0.714 ± 0.053
2,PTPPVPPPRTLL,0.667 ± 0.055
3,PTPRPTRSPPPP,0.689 ± 0.01
4,PTPSLPCPDHPL,0.693 ± 0.0098
5,PTQPVPPRTPHY,0.6698 ± 0.0051
6,PTRAPVKPDQHP,0.798 ± 0.072
7,PTTTPPPTPITG,0.76 ± 0.065
8,PTTTRSKDKVQR,0.738 ± 0.041
9,PTTVPPGPTSVH,0.755 ± 0.058
10,PTVKVLSWLAGH,0.703 ± 0.018
11,PVASSPLLPSPS,0.649 ± 0.061
12,PVFDSRDRTFSH,0.713 ± 0.042
13,PVHPPAPHPSPP,0.663 ± 0.037
14,PVPCNYSPVIHL,0.688 ± 0.029
15,PVPKFKEPKIWW,0.698 ± 0.021
16,PVPPGYFLRSPP,0.701 ± 0.032
17,PVPRPSERSFLL,0.7316 ± 0.0057
18,PVPSYYHKPPPL,0.704 ± 0.019
19,PVRFGNCPSILS,0.7725 ± 0.0012
20,PVSCPPPPLHMS,0.661 ± 0.013
21,PVSNVFDLTGMT,0.683 ± 0.021
22,PVSPCSQRGIFV,0.692 ± 0.01
23,PVVFFSYPLPSF,0.699 ± 0.019
24,PWCTPVKRGTSM,0.763 ± 0.056
25,PWDGFGPYAPYP,0.657 ± 0.081
26,PWPLPLPPSSLP,0.684 ± 0.018

row,Sequence,protein stability index
1,PWVNLFPCQINI,0.639 ± 0.02
2,PYAHTKGSLGML,0.6352 ± 0.0013
3,PYNLSSRPSTLL,0.625 ± 0.053
4,PYPVRSRPPAPA,0.6726 ± 0.0039
5,PYSFDTNFVLIS,0.643 ± 0.1
6,PYTPRSTSPPPL,0.7702 ± 0.0066
7,QAGSTEERFCGG,0.664 ± 0.02
8,QAKKSLTTKTSD,0.658 ± 0.024
9,QASRGSLPSEIE,0.6414 ± 0.0029
10,QCESVRLNFGGR,0.704 ± 0.021
11,QDAPPSTPPRPL,0.786 ± 0.15
12,QDFDHPNSIRLP,0.671 ± 0.027
13,QEKTKTYPIPQR,0.688 ± 0.041
14,QERWGRGWGTRG,0.709 ± 0.072
15,QESKRKDMKERN,0.75 ± 0.049
16,QEVTEVFSSTSY,0.658 ± 0.01
17,QEWAQYTHSEQP,0.735 ± 0.026
18,QFDRDCAWRPDV,0.653 ± 0.039
19,QFGPSENVEFRS,0.742 ± 0.036
20,QGDPTCLKGINE,0.669 ± 0.05
21,QGGREGSRQRRV,0.629 ± 0.013
22,QGIKRPSSNKSK,0.731 ± 0.13
23,QGNEQFRYKILQ,0.598 ± 0.098
24,QGSRRPRSVVWG,0.708 ± 0.038
25,QGTNKRRNKNWE,0.704 ± 0.03
26,QGVGDILARVQG,0.697 ± 0.048

row,Sequence,protein stability index
1,QHFIRGWAWPTV,0.729 ± 0.034
2,QHHRTSIPSSPV,0.671 ± 0.025
3,QIGKQAAATGTA,0.708 ± 0.049
4,QIHGQKNFKTLD,0.704 ± 0.078
5,QIIRKKSKVPTH,0.686 ± 0.057
6,QKDTGKETTYRA,0.681 ± 0.037
7,QKKELKTKKKER,0.663 ± 0.016
8,QKKKKKNTKKKL,0.701 ± 0.054
9,QKKNQNKQEQKL,0.683 ± 0.021
10,QKKNSKKIKPKR,0.694 ± 0.026
11,QKKRKKTNQKNL,0.621 ± 0.041
12,QKNKNTEKINTK,0.663 ± 0.018
13,QKRKQKKIIQRM,0.652 ± 0.013
14,QKTLKPEQVAEH,0.68 ± 0.027
15,QKTVRDIRIAAL,0.591 ± 0.086
16,QLETFGRDLTIP,0.716 ± 0.11
17,QLGGLHIPHPLR,0.899 ± 0.028
18,QNKKNKNKKKKE,0.706 ± 0.027
19,QNKTQKSKKKKS,0.734 ± 0.038
20,QPPLSDYHQARR,0.683 ± 0.023
21,QPPPPPPRPPPP,0.504 ± 0.016
22,QPPPPSPPPPLP,0.653 ± 0.047
23,QPTCSLRAGPRD,0.713 ± 0.036
24,QPVGAAQWGSQS,0.715 ± 0.028
25,QQRKGTKDNGRE,0.707 ± 0.095
26,QREKGEKERTET,0.6783 ± 0.004

row,Sequence,protein stability index
1,QRGGEGWILGGV,0.687 ± 0.026
2,QRPSRAQGKSYE,0.766 ± 0.014
3,QRRRYKHEIKRM,0.648 ± 0.0085
4,QRSEHGAHPTEP,0.701 ± 0.035
5,QRSFSLRLSAPV,0.681 ± 0.029
6,QRTAACGSQRNR,0.682 ± 0.025
7,QSILVCELGMEG,0.67 ± 0.051
8,QSKIKNKNIKIK,0.671 ± 0.017
9,QSLRRLSSSSCI,0.707 ± 0.058
10,QSRAMFELMGIS,0.652 ± 0.004
11,QSRHCHPTPKRL,0.65 ± 0.031
12,QSRYASDLRNGL,0.699 ± 0.065
13,QSSWVGRWVRGG,0.659 ± 0.02
14,QSVSSTGQARLS,0.682 ± 0.033
15,QSWVNIGCRGAW,0.72 ± 0.012
16,QTATIKGTLIAM,0.585 ± 0.0076
17,QTDRPPPVSPPR,0.671 ± 0.047
18,QTKSPAKREKTC,0.665 ± 0.058
19,QTVFRQRLKEPF,0.644 ± 0.038
20,QVFTLFPASYPL,0.688 ± 0.057
21,QVKESDGEATKS,0.592 ± 0.024
22,QVPDPSVNQPPS,0.699 ± 0.028
23,QWAAVCAVVGGG,0.684 ± 0.055
24,QWAGGQERTAGK,0.583 ± 0.024
25,QWIINVSRSIRK,0.654 ± 0.031
26,RAARQRSVYQHG,0.6481 ± 0.0037

row,Sequence,protein stability index
1,RACSLWVSVVQP,0.67873 ± 2.3e-05
2,RADGHGARFRVR,0.799 ± 0.009
3,RAFDGYNSVDML,0.663 ± 0.023
4,RAKLKKNKRRCK,0.719 ± 0.0067
5,RALGKRFIQARD,0.727 ± 0.022
6,RALPPPLCPPPH,0.606 ± 0.056
7,RAPMQPTATQAP,0.654 ± 0.035
8,RAPPKTTPHPAE,0.693 ± 0.052
9,RARELGVPPPPP,0.579 ± 0.066
10,RARGGGAEPGRN,0.685 ± 0.027
11,RARGQPTKDIAS,0.643 ± 0.018
12,RARNRPKTEYHI,0.6826 ± 0.0025
13,RASFLLPPPAPP,0.6311 ± 0.0049
14,RAVFFLQAHCSL,0.674 ± 0.0072
15,RAWPLLPTCPPP,0.7 ± 0.019
16,RCFGPPSRLAYF,0.683 ± 0.017
17,RCGDGLSRLTPL,0.71 ± 0.032
18,RCGGGGSVSFWW,0.693 ± 0.049
19,RCGLSGGRPPVL,0.6475 ± 0.0016
20,RCGRVEKRIGRV,0.756 ± 0.086
21,RCIAAEFFRVHP,0.685 ± 0.019
22,RCIASHRLSLRT,0.682 ± 0.037
23,RCTRAAGLAAPA,0.691 ± 0.0088
24,RCTWEATYNLRY,0.749 ± 0.092
25,RCVSLDVPPTGA,0.688 ± 0.013
26,RDALVNADKIGR,0.703 ± 0.061

row,Sequence,protein stability index
1,RDAWLGMSQYTF,0.7302 ± 0.0051
2,RDCVVSCSCIHI,0.694 ± 0.057
3,RDGKRHSSQWRG,0.659 ± 0.037
4,RDGLWCFSEFLG,0.731 ± 0.048
5,RDGRAGGDIGAT,0.618 ± 0.11
6,RDNNSNEMGQAI,0.723 ± 0.016
7,RDPIGRPEMSKI,0.67 ± 0.086
8,RDPTPPNPPPSR,0.763 ± 0.057
9,RDTFLKMLDERN,0.732 ± 0.042
10,RDVVRGVSRGGR,0.714 ± 0.02
11,REAPPYQSHVAS,0.676 ± 0.065
12,REDAKLGYGKKK,0.637 ± 0.061
13,REGGVLGVVKWS,0.668 ± 0.02
14,REGPSPLDPSRF,0.684 ± 0.051
15,RELKSPRCRTHR,0.653 ± 0.12
16,RELLWFIFTGFC,0.622 ± 0.042
17,REREKITRKRNT,0.69 ± 0.01
18,RERGVSVKLGGG,0.677 ± 0.026
19,RESPYSRSRCLL,0.733 ± 0.17
20,RETMFTRFRGSD,0.627 ± 0.063
